Measurements from patent US12351605B2, “Optically controllable FGFR stimulation using wireless controlled cellular lighting system” (THE JOHNS HOPKINS UNIVERSITY, priority 2020, dated 2025).
Where two headings read alike, the source gives them in different places.

Key:
[1] = daily feeding condition, cited from earlier work
FGF signaling pathway = experiment: Western blot of ERK1/2 and MEK phosphorylation in Opto-FGFR hESCs; type: cell-based, human; details: 10 ng/mL FGF2 after 24 h FGF2 starvation; 15 min intervals up to 120 min
Procedure: Western blot analysis. The phosphorylation status of MEK and ERK1/2 were determined by Western blot analysis. The cells were starved from FGF2 protein for 24 h, and then exposed to either FGF2 protein or blue light illumination. One μg aliquots of whole cell lysates were loaded onto 4-20% gradient SDS-PAGE gels and then transferred to nitrocellulose membranes (Bio-Rad) using the Trans-Blot® Turbo™ Transfer System (Bio-Rad). The detection of phosphorylated ERK1/2 proteins (42 and 44 kDa) was performed using a phospho-ERK1/2 antibody (Cell Signaling), total ERK1/2 expression level was determined using a total […] antibody (Cell Signaling), detection of pMEK protein (45 kDa) was performed using a pMEK1/2 antibody (Cell Signaling), and total MEK expression level was determined using a total MEK1/2 antibody (Cell Signaling). The expression levels are quantified by normalizing to GAPDH expression (Cell Signaling). Following the primary antibody incubation, the membranes were incubated with the appropriate secondary antibodies and subsequently visualized with an ECL kit (Pierce).
Generation of a light-inducible FGF signaling system. […]

FGF2: recombinant fibroblast growth factor 2 protein, medium component for maintaining pluripotency of PSCs
decrease of FGF2 protein concentration ([1]; 4 h after the initial feeding): approximately 40%
decrease of FGF2 protein concentration ([1]; 24 h after the initial feeding): approximately 10%
activation of FGF signaling (phosphorylation of ERK1/2 and MEK) (FGF signaling pathway): activated FGF signaling
